Measured values published in paper PMC11914300, “Immediate early splicing controls translation in activated T-cells and is mediated by hnRNPC2 phosphorylation”.

Legend:
Conditions in all cases: protein: recombinant; tags: N-terminal Twin-Strep-SUMO, removed with PreScission protease; chain copies: 4; label: 5' 32P
hnRNPC2 S115D = hnRNPC2 S115D (UniProt P07910 1-306, S115D); assay: EMSA; 0-2000 nM protein, 10 pmol RNA; no difference from WT; EMSA: 20 mM Tris-HCl pH 8.0, 0.25 M NaCl, 1 mM DTT, 10% glycerol, 0.2 mM EDTA; 37 C, 20 min; 5% polyacrylamide gel
hnRNPC2 WT [1] = target: T1, hnRNPC2 WT (UniProt P07910 1-306); assay: EMSA; 0-2000 nM protein, 10 pmol RNA; higher affinity than intron RNAs; EMSA: 20 mM Tris-HCl pH 8.0, 0.25 M NaCl, 1 mM DTT, 10% glycerol, 0.2 mM EDTA; 37 C, 20 min; 5% polyacrylamide gel
hnRNPC2 WT [2] = target: T1, hnRNPC2 WT; assay: EMSA; 0-10 uM protein, 10 pmol RNA; EMSA: 20 mM Tris-HCl pH 8.0, 0.25 M NaCl, 1 mM DTT, 10% glycerol, 0.2 mM EDTA; 37 C, 20 min; 5% polyacrylamide gel

T1 sequence (P07910 whole entry): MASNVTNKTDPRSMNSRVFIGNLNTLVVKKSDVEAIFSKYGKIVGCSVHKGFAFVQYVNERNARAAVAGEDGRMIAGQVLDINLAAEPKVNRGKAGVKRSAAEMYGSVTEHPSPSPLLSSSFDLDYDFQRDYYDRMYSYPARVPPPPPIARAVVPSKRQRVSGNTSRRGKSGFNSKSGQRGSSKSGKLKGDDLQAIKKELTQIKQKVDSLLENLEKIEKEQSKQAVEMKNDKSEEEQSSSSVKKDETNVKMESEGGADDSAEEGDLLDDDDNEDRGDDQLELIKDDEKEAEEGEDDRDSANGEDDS
hnRNPC2 S115D, sequence (P07910 whole entry S115D): as the sequence (P07910 whole entry) above, with S115D counted along it

Binder | binding result (hnRNPC2 S115D) | binding result (hnRNPC2 WT [1]) | binding result (hnRNPC2 WT [2])
UUUUUUUUUUUUUUUUUUUUUUUUUUUUUUUUUUUUUUUUUUUUU (ssRNA) [poly-U 45 nt] | binds | binds | 
ACCCCCUGCACACUUACCCAAUCCUUUUAG (ssRNA) [RPL10 intron 6 3' splice site RNA] |  |  | binds
AUCUCUUGGCUAUCCCUCUUGCUUCUCCAG (ssRNA) [eIF5A intron 5 3' splice site RNA] |  |  | binds
